# Assay results from patent publication US20160145657A1, “Methods and Materials for Producing 7-Carbon Chemicals via a C9 Route” (INVISTA North America S.á.r.l., priority 2014, published 2016).
# B1: SEQ ID NO: 6: Segniliparus rotundus carboxylate reductase, Genbank Accession No. ADG98140.1 (protein)
# chain: MTQSHTQGPQASAAHSRLARRAAELLATDPQAAATLPDPEVVRQATRPGLRLAERVDAILSGYADRPALGQRSFQTVKDPITGRSSVELLPTFDTITYRELRERATAIASDLAHHPQAPAKPGDFLASIGFISVDYVAIDIAGVFAGLTAVPLQTGATLATLTAITAETAPTLFAASIEHLPTAVDAVLATPSVRRLLVFDYRAGSDEDREAVEAAKRKIADAGSSVLVDVLDEVIARGKSAPKAPLPPATDAGDDSLSLLIYTSGSTGTPKGAMYPERNVAHFWGGVWAAAFDEDAAPPVPAINITFLPLSHVASRLSLMPTLARGGLMHFVAKSDLSTLFEDLKLARPTNLFLVPRVVEMLYQHYQSELDRRGVQDGTREAEAVKDDLRTGLLGGRILTAGFGSAPLSAELAGFIESLLQIHLVDGYGSTEAGPVWRDGYLVKPPVTDYKLIDVPELGYFSTDSPHPRGELAIKTQTILPGYYKRPETTAEVFDEDGFYLTGDVVAQIGPEQFAYVDRRKNVLKLSQGEFVTLAKLEAAYSSSPLVRQLFVYGSSERSYLLAVIVPTPDALKKFGVGEAAKAALGESLQKIARDEGLQSYEVPRDFIIETDPFTVENGLLSDARKSLRPKLKEHYGERLEAMYKELADGQANELRDIRRGVQQRPTLETVRRAAAAMLGASAAEIKPDAHFTDLGGDSLSALTFSNFLHDLFEVDVPVGVIVSAANTLGSVAEHIDAQLAGGRARPTFATVHGKGSTTIKASDLTLDKFIDEQTLEAAKHLPKPADPPRTVLLTGANGWLGRFLALEWLERLAPAGGKLITIVRGKDAAQAKARLDAAYESGDPKLAGHYQDLAATTLEVLAGDFSEPRLGLDEATWNRLADEVDFISHPGALVNHVLPYNQLFGPNVAGVAEIIKLAITTRIKPVTYLSTVAVAAGVEPSALDEDGDIRTVSAERSVDEGYANGYGNSKWGGEVLLREAHDRTGLPVRVFRSDMILAHQKYTGQVNATDQFTRLVQSLLATGLAPKSFYELDAQGNRQRAHYDGIPVDFTAESITTLGGDGLEGYRSYNVFNPHRDGVGLDEFVDWLIEAGHPITRIDDYDQWLSRFETSLRGLPESKRQASVLPLLHAFARPGPAVDGSPFRNTVFRTDVQKAKIGAEHDIPHLGKALVLKYADDIKQLGLL
# B2: SEQ ID NO 7: Chromobacterium violaceum ω-transaminase, Genbank Accession No. AAQ59697.1 (protein)
# chain: MQKQRTTSQWRELDAAHHLHPFTDTASLNQAGARVMTRGEGVYLWDSEGNKIIDGMAGLWCVNVGYGRKDFAEAARRQMEELPFYNTFFKTTHPAVVELSSLLAEVTPAGFDRVFYTNSGSESVDTMIRMVRRYWDVQGKPEKKTLIGRWNGYHGSTIGGASLGGMKYMHEQGDLPIPGMAHIEQPWWYKHGKDMTPDEFGVVAARWLEEKILEIGADKVAAFVGEPIQGAGGVIVPPATYWPEIERICRKYDVLLVADEVICGFGRTGEWFGHQHFGFQPDLFTAAKGLSSGYLPIGAVFVGKRVAEGLIAGGDFNHGFTYSGHPVCAAVAHANVAALRDEGIVQRVKDDIGPYMQKRWRETFSRFEHVDDVRGVGMVQAFTLVKNKAKRELFPDFGEIGTLCRDIFFRNNLIMRACGDHIVSAPPLVMTRAEVDEMLAVAERCLEEFEQTLKARGLA
# Key:
# [1] = carboxylate reductase activity, pimelate to pimelate semialdehyde, NADPH consumption at 340 nm; type: biochemical; conditions: purified enzyme enhanced by sfp gene product, 2 mM pimelate, pH 7.5, room temperature, 20 min; FIG. 8
# Protocol: A nucleotide sequence encoding a HIS-tag was added to the nucleic acid sequences from Segniliparus rugosus and Segniliparus rotundus that encode the carboxylate reductases of SEQ ID NOs: 4 (EFV11917.1) and 6 (ADG98140.1), respectively (see FIG. 6), such that N-terminal HIS tagged carboxylate reductases could be produced. Each of the modified genes was cloned into a pET Duet expression vector along with a sfp gene encoding a HIS-tagged phosphopantetheine transferase from Bacillus subtilis, both under the T7 promoter. Each expression vector was transformed into a BL21[DE3] E. coli host and the resulting recombinant E. coli strains were cultivated at 37° C. in a 250 mL shake flask culture containing 50 mL LB media and antibiotic selection pressure, with shaking at 230 rpm. Each culture was induced overnight at 37° C. using an auto-induction media.
# The pellet from each induced shake flask culture was harvested via centrifugation. Each pellet was resuspended and lysed via sonication, and the cell debris was separated from the supernatant via centrifugation. […]
# Enzyme activity assays (i.e., from pimelate to pimelate semialdehyde) were performed in triplicate in a buffer composed of a final concentration of 50 mM HEPES buffer (pH=7.5), 2 mM pimelate, 10 mM MgCl2, 1 mM ATP and 1 mM NADPH. […] The consumption of NADPH was monitored by absorbance at 340 nm. […]
# [2] = carboxylate reductase activity, N7-acetyl-7-aminoheptanoate to N7-acetyl-7-aminoheptanal, NADPH consumption at 340 nm; type: biochemical; conditions: purified enzyme enhanced by sfp gene product, 2 mM N7-acetyl-7-aminoheptanoate, pH 7.5, room temperature, 20 min; FIG. 10
# Protocol: The activity of each of the N-terminal His-tagged carboxylate reductases of SEQ ID NOs: 3, 5, and 6 (see Examples 2 and 3, and FIG. 6) for converting N7-acetyl-7-aminoheptanoate to N7-acetyl-7-aminoheptanal was assayed in triplicate in a buffer composed of a final concentration of 50 mM HEPES buffer (pH=7.5), 2 mM N7-acetyl-7-aminoheptanoate, 10 mM MgCl2, 1 mM ATP, and 1 mM NADPH. The assays were initiated by adding purified carboxylate reductase and phosphopantetheine transferase or the empty vector control to the assay buffer containing the N7-acetyl-7-aminoheptanoate then incubated at room temperature for 20 min. The consumption of NADPH was monitored by absorbance at 340 nm.
# [3] = carboxylate reductase activity, pimelate semialdehyde to heptanedial, NADPH consumption at 340 nm; type: biochemical; conditions: purified enzyme enhanced by sfp gene product, 2 mM pimelate semialdehyde, pH 7.5, room temperature, 20 min; FIG. 11
# Protocol: The N-terminal His-tagged carboxylate reductase of SEQ ID NO: 6 (see Example 3 and FIG. 6) was assayed using pimelate semialdehyde as substrate. The enzyme activity assay was performed in triplicate in a buffer composed of a final concentration of 50 mM HEPES buffer (pH=7.5), 2 mM pimelate semialdehyde, 10 mM MgCl2, 1 mM ATP and 1 mM NADPH. The enzyme activity assay reaction was initiated by adding purified carboxylate reductase and phosphopantetheine transferase or the empty vector control to the assay buffer containing the pimelate semialdehyde and then incubated at room temperature for 20 min. The consumption of NADPH was monitored by absorbance at 340 nm.
# [4] = ω-transaminase activity, reverse direction (7-aminoheptanoate to pimelate semialdehyde), L-alanine formation by RP-HPLC; type: biochemical; conditions: cell free extract, 10 mM 7-aminoheptanoate, 10 mM pyruvate, pH 7.5, 25° C., 4 h; FIG. 13
# Protocol: (§1) A nucleotide sequence encoding an N-terminal His-tag was added to the nucleic acid sequences from Chromobacterium violaceum, Pseudomonas syringae, Rhodobacter sphaeroides, and Vibrio fluvialis encoding the ω-transaminases of SEQ ID NOs: 7, 9, 10 and 12, respectively (see FIG. 6) such that N-terminal HIS tagged ω-transaminases could be produced. Each of the resulting modified genes was cloned into a pET21a expression vector under control of the T7 promoter and each expression vector was transformed into a BL21[DE3] E. coli host. The resulting recombinant E. coli strains were cultivated at 37° C. in a 250 mL shake flask culture containing 50 mL LB media and antibiotic selection pressure, with shaking at 230 rpm. Each culture was induced overnight at 16° C. using 1 mM IPTG.
# (§2) The pellet from each induced shake flask culture was harvested via centrifugation. Each pellet was resuspended and lysed via sonication. The cell debris was separated from the supernatant via centrifugation and the cell free extract was used immediately in enzyme activity assays.
# Enzyme activity assays in the reverse direction (i.e., 7-aminoheptanoate to pimelate semialdehyde) were performed in a buffer composed of a final concentration of 50 mM HEPES buffer (pH=7.5), 10 mM 7-aminoheptanoate, 10 mM pyruvate and 100 μM pyridoxyl 5′ phosphate. Each enzyme activity assay reaction was initiated by adding cell free extract of the ω-transaminase gene product or the empty vector control to the assay buffer containing the 7-aminoheptanoate and incubated at 25° C. for 4 h, with shaking at 250 rpm. The formation of L-alanine from pyruvate was quantified via RP-HPLC.
# [5] = ω-transaminase activity, forward direction (pimelate semialdehyde to 7-aminoheptanoate), pyruvate formation by RP-HPLC; type: biochemical; conditions: conclusion from reverse and forward assays of Example 1
# Protocol: as §1, §2
# Enzyme activity in the forward direction (i.e., pimelate semialdehyde to 7-aminoheptanoate) was confirmed for the transaminases of SEQ ID NO 9, SEQ ID NO 10 and SEQ ID NO 12. Enzyme activity assays were performed in a buffer composed of a final concentration of 50 mM HEPES buffer (pH=7.5), 10 mM pimelate semialdehyde, 10 mM L-alanine and 100 μM pyridoxyl 5′ phosphate. Each enzyme activity assay reaction was initiated by adding a cell free extract of the ω-transaminase gene product or the empty vector control to the assay buffer containing the pimelate semialdehyde and incubated at 25° C. for 4 h, with shaking at 250 rpm. The formation of pyruvate was quantified via RP-HPLC.
# [6] = ω-transaminase activity, 7-aminoheptanol to 7-oxoheptanol, L-alanine formation by RP-HPLC; type: biochemical
# Protocol: A nucleotide sequence encoding an N-terminal His-tag was added to the Chromobacterium violaceum, Pseudomonas syringae and Rhodobacter sphaeroides nucleic acids encoding the ω-transaminases of SEQ ID NOs: 7, 9 and 10, respectively (see FIG. 6) such that N-terminal HIS tagged ω-transaminases could be produced. The modified genes were cloned into a pET21a expression vector under the T7 promoter. Each expression vector was transformed into a BL21[DE3] E. coli host. Each resulting recombinant E. coli strain were cultivated at 37° C. in a 250 mL shake flask culture containing 50 mL LB media and antibiotic selection pressure, with shaking at 230 rpm. Each culture was induced overnight at 16° C. using 1 mM IPTG.
# as §2
# Enzyme activity assays in the reverse direction (i.e., 7-aminoheptanol to 7-oxoheptanol) were performed in a buffer composed of a final concentration of 50 mM HEPES buffer (pH=7.5), 10 mM 7-aminoheptanol, 10 mM pyruvate, and 100 μM pyridoxyl 5′ phosphate. Each enzyme activity assay reaction was initiated by adding cell free extract of the ω-transaminase gene product or the empty vector control to the assay buffer containing the 7-aminoheptanol and then incubated at 25° C. for 4 h, with shaking at 250 rpm. The formation of L-alanine was quantified via RP-HPLC.
# [7] = literature reports; cited from earlier work
Molecule,acceptance of pimelate as substrate (NADPH consumption) against the empty vector control [1],acceptance of N7-acetyl-7-aminoheptanoate as substrate (NADPH consumption) against the empty vector control [2],acceptance of pimelate semialdehyde as substrate (NADPH consumption) against the empty vector control [3],acceptance of 7-aminoheptanoate as substrate (conversion of pyruvate to L-alanine) against the empty vector control [4],"reversibility of ω-transaminase activity: pimelate semialdehyde accepted, 7-aminoheptanoate synthesized [5]","acceptance of 7-aminoheptanol as substrate (conversion of pyruvate to L-alanine) against the empty vector control ([6]; cell free extract, 10 mM 7-aminoheptanol, 10 mM pyruvate, pH 7.5, 25° C., 4 h, FIG. 17)","acceptance of 7-oxoheptanol as substrate forming 7-aminoheptanol, concluded from reversibility ([6]; inferred from reverse direction assay and Example 1)",activity with 7-aminoheptanoate / 7-aminoheptanoic acid (to pimelate semialdehyde) [7]
B1,accepted pimelate as substrate,accepted N7-acetyl-7-aminoheptanoate as substrate,accepted pimelate semialdehyde as substrate,,,,,
B2,,,,accepted 7-aminoheptanote as substrate,accepted pimelate semialdehyde as substrate and synthesized 7-aminoheptanoate as a reaction product,accepted 7-aminoheptanol as substrate,accept 7-oxoheptanol as substrate and form 7-aminoheptanol,demonstrated analogous activity accepting 7-aminoheptanoic acid as amino donor
